Data as given in the supplement of paper PMC10567573.

B1: KLHL14 (parent)
chain: YVIGGRNETGYLSSVECYNLETNE
B2: GAGE1 (parent)
chain: QPPEMIGPMRPEQFSDEVEPATPE

Variants of: B1
Assay: protein stability index of a GFP-peptide fusion (GPS, HEK-293T) (PSI 1-6); higher = more stable
Settings: c terminus: a fixed tail appended
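Also: lentivirally expressed fusions sorted by FACS into six bins by GFP to DsRed ratio, PSI derived from sequencing read proportions per bin multiplied by bin number.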

Protein stability index: each site, then its substitutions
G4: V 1.3 | E 2.11 | N 1.89 | F 1.31 | D 1.89 | S 2.46 | A 1.77 | H 2.4 | T 1.5 | Y 2.42 | R 1.71 | P 2.56 | Q 2.55 | K 2.34 | I 2.1 | C 1.75 | M 2.31 | W 2.32 | L 1.47
N7: Y 1.5 | V 1.71 | L 2.36 | P 1.84 | D 2.5 | W 1.63 | H 2.45 | F 2.29 | R 2.38 | A 2.03 | I 1.74 | K 2.27 | M 1.66 | S 2.63 | G 1.99 | Q 1.91 | T 1.85 | E 2.59 | C 1.7
L12: G 2.99 | K 2.16 | E 3.23 | D 3.42 | Q 2.42 | C 2.32 | I 2.25 | T 2.57 | W 2.47 | N 2.78 | V 2.21 | Y 1.8 | P 2.64 | H 1.92 | R 3.28 | A 2.62 | M 2.33 | S 2.59 | F 1.8
Y11: R 2.13 | P 3.71 | A 2.71 | E 3.9 | I 2.1 | L 2.2 | T 2.75 | V 2.52 | C 2.45 | H 2.45 | D 3.65 | F 1.83 | M 1.96 | Q 3.1 | G 2.85 | K 2.86 | S 2.42 | N 2.83
G10: P 1.52 | N 1.65 | M 1.68 | A 1.88 | L 2.62 | Y 1.6 | K 2.13 | V 1.98 | C 2.58 | S 1.93 | D 3.07 | F 2.81 | I 1.25 | W 2.21 | R 2.55 | T 1.6 | E 3.13 | H 1.45 | Q 2.29
S13: E 2.61 | M 1.91 | P 2.6 | A 1.65 | I 1.84 | N 1.78 | H 1.58 | G 1.81 | D 2.76 | L 2.25 | F 2.13 | C 2.24 | K 1.68
R6: K 2.05 | G 1.92 | C 2.21 | D 2.57 | E 2.97 | P 2.51 | A 2.93 | V 1.87 | F 1.5 | T 2.52 | L 2.09 | Q 2.77 | M 1.69 | Y 1.69 | N 2.2 | I 1.67 | H 1.9 | W 1.96 | S 2.35
G5: M 1.69 | R 1.71 | Y 1.72 | K 1.76 | S 2.31 | P 1.89 | T 2.33 | F 2.41 | E 3.15 | A 1.71 | H 1.74 | V 1.49 | D 3.12 | W 2.92 | Q 2.1 | N 1.92 | I 2.24 | L 2.82 | C 1.93
T9: D 2.23 | A 1.9 | C 1.73 | M 2.37 | W 1.78 | I 1.49 | F 2.21 | G 1.69 | R 2.76 | K 2.13 | V 2.07 | H 1.6 | P 1.9 | E 2.67 | N 1.83 | S 1.93 | Q 2 | Y 1.58 | L 1.69
E8: V 1.78 | F 1.99 | I 1.81 | Y 1.84 | W 2.08 | Q 1.88 | A 1.45 | K 1.89 | L 1.32 | M 2.21 | S 2.09 | T 1.78 | R 1.95 | D 1.56 | N 1.8 | P 1.16 | G 2.44 | H 2.02
I3: C 1.66 | M 2.1 | V 2.24 | N 1.81 | E 2.64 | D 2.39 | H 1.83 | S 1.61 | W 1.02 | G 2.4 | T 2.18 | K 1.58 | R 1.49 | L 1.84 | Y 1.3 | A 3.4 | P 2.65 | Q 2.06 | F 1.76
Y1: R 4.39 | L 2.96 | N 4.25 | W 2.87 | V 3.2 | Q 4.68 | H 4.61 | C 3.48 | I 2.06 | F 2.19 | D 4.64 | T 4.71 | S 4.63 | K 4.12 | A 4.43 | P 4.82 | M 3.55 | G 4.99 | E 4.45
V2: C 2.87 | M 3.87 | L 3.33 | N 4.24 | P 3.9 | K 3.91 | S 3.89 | W 2.44 | E 4.59 | Y 3.4 | D 4.57 | R 3.4 | F 3.32 | A 3.08 | I 2.14 | H 2.15 | T 3.5 | Q 2.7 | G 4

Variants of: B2
Assay: as above
Settings: c terminus: a fixed tail appended

Protein stability index of substitutions, site by site:
A21: S 4.79 | R 5 | V 5.34 | D 5.12 | K 5.32 | W 4.7 | M 5.17 | F 5.05 | G 4.98 | L 4.9 | C 4.59 | I 4.87 | Y 4.08 | H 4.66 | Q 4.79 | E 5.21 | N 4.29 | P 4.6 | T 4.83
E19: Y 4.65 | W 4.75
P23: Q 5.16 | R 5.3 | T 4.81 | A 5.02 | L 4.9 | H 5 | I 4.72 | Y 4.4 | N 5.26 | M 5.05 | V 4.5 | G 5.2 | W 4.41 | C 4.57 | E 4.81 | D 5.28 | F 4.69 | K 5.1 | S 5.14
E24: H 4.62 | R 4.27 | D 4.51 | W 4.16 | V 4.45 | P 4.65 | G 4.67 | A 4.99 | F 4.83 | T 4.98 | I 4.56 | Y 4.57 | S 4.65 | Q 4.61 | M 4.37 | C 4.6 | L 4.09 | K 4.68 | N 5.18
P20: Y 5.13 | S 5.18 | D 5.25 | C 4.84 | G 5.36 | W 3.7 | H 5.46 | N 4.75 | L 5.27 | K 4.79 | E 4.92 | M 4.65 | A 4.44 | F 4.98 | Q 5.21 | T 4.91 | R 5 | I 4.96
T22: Y 4.84 | G 5.15 | P 5.08 | F 4.46 | V 4.8 | D 5.43 | L 4.79 | I 4.66 | Q 5.2 | A 4.6 | H 4.89 | W 4.35 | R 4.61 | N 4.56 | C 4.97 | M 4.79 | K 4.96 | E 5.2
